Assay results reported in US20060024297A1 (published 2006).
Where “and” joins values, the source holds several entries; their conditions need not be identical. Equal values may be shown once.

T1: recombinant human Tie1-Fc (Tie1 extracellular domain fused to human Fc) (human, UniProt P35590 25-759)
T1 construct: also called Tie-1 Fc Human; not shown: human Fc
T1 sequence: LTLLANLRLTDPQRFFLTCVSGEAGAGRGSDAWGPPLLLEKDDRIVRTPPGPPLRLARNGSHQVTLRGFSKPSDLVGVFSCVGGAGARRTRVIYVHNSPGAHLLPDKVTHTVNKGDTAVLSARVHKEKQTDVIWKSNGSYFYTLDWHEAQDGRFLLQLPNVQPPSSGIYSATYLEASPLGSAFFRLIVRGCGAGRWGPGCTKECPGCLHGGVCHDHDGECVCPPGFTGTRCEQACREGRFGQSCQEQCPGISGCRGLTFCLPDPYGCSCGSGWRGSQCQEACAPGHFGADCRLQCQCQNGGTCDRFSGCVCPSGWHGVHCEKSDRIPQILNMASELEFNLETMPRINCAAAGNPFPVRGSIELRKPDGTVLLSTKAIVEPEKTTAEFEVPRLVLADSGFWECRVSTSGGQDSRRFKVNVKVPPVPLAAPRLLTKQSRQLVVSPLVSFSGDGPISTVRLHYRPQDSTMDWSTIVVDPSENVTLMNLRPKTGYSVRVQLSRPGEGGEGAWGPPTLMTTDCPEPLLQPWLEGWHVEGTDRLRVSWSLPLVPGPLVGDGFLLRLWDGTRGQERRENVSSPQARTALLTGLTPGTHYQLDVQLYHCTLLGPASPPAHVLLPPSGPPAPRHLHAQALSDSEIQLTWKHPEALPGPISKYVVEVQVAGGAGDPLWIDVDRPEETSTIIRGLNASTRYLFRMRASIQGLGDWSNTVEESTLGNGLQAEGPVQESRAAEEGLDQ

T2: recombinant mouse Tie1-Fc (mouse, UniProt Q06806 23-755, limits assumed)
T2 construct: also called Tie-1 Fc Mouse; not shown: Fc
T2 sequence (looked up): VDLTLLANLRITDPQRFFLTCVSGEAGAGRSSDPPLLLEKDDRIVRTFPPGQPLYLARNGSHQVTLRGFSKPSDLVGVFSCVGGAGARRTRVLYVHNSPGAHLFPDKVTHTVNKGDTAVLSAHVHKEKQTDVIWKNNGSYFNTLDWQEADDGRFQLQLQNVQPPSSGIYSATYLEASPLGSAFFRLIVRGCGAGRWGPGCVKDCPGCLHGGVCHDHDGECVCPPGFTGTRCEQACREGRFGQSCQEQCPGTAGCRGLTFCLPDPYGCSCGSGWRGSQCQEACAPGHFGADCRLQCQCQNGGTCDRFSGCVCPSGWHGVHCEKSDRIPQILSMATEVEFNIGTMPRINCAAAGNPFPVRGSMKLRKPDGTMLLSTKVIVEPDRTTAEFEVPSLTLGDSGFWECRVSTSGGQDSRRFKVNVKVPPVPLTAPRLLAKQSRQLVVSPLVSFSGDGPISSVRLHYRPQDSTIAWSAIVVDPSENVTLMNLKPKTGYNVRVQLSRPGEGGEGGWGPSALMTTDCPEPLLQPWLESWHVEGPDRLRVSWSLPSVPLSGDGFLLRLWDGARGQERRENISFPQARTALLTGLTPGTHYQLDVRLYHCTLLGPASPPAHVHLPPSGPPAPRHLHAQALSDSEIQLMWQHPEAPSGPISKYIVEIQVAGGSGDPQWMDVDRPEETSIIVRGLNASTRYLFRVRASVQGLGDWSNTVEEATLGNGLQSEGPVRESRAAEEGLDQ


Legend:
[1] = target: T3, endogenous human Tie1 of primary human endothelial cells (HDMEC/HDMVEC, HUVEC) and human tissues (human, UniProt P35590 25-1138); assay: cell-based or functional assay
[2] = target: T1, recombinant human Tie1-Fc (Tie1 …); assay: BIAcore, human Tie-1 Fc over IgG coupled to CM5 chip, 1:1 fit
Experimental: The IgG were directly coated onto a CM5 chip. […] All flow cells were subsequently deactivated with a 7 minute pulse of 1M ethanolamine hydrochloride pH 8.5. All analysis was performed in HBS buffer. Purified recombinant human Tie-1 Fc was diluted 1/28.7 in HBS to obtain a 400 nM stock solution. Serial dilutions were made to obtain 200 nM, 100 nM, 50 nM and 25 nM Tie-1 Fc stocks. For analysis of the association phase samples were injected at 30 μl/min for 8.3 minutes using kinject program. This was followed by a 40 minutes dissociation phase. Any antigen remaining associated to the surface was stripped from the IgG surface at a flow of 50μl/min with two injections of 10 mM glycine pH 1.5 for 30 secods. All samples were run and analyzed in duplicate
(§1) Sensorgrams were analyzed using the simultaneous ka/kd fitting program with 1:1 model in the BIAEVALUATION™ software 3.1.

[3] = target: T2, recombinant mouse Tie1-Fc; assay: BIAcore, mouse Tie-1 Fc over IgG coupled to CM5 chip, 1:1 fit
Experimental: This was then used to transiently transfect HEK293T cells using established procedures. The IgG was purified from the culture supernatant using protein A column chromatography using established procedures and the subsequent IgG was then tested for binding activity using surface plasmon resonance (BIAcore). […] The IgG were directly coated via onto a CM5 chip. […] All flow cells were subsequently deactivated with a 7 minute pulse of 1M ethanolamine hydrochloride pH8.5. All analysis was performed in HBS buffer. Purified recombinant mouse Tie-1 Fc was diluted 1/6.5 in HBS to obtain a 400 nM stock solution. Serial dilutions were made to obtain 200 nM, 100 nM, 50 nM and 25 nM Tie-1 Fc stocks. For analysis of the association phase samples were injected at 30 μl/min for 8.3 minutes using kinject program. This was followed by a 40 minutes dissociation phase. Any antigen remaining associated to the surface was stripped from the IgG surface at a flow of 50μl/min with two injections of 10 mM glycine pH1.5 for 30 seconds. All samples were run and analyzed in duplicate
as §1

[4] = target: T3, endogenous human Tie1 of primary human …; assay: immunofluorescence, HDMEC
[5] = target: T4, human Tie1, full length, V5-tagged (pcDNA3-Tie1-V5), in transiently transfected COS1 cells (human, UniProt P35590 25-1138); assay: Western blot, Tie1-V5-transfected COS1
T4 construct: it is not expressly tied to the pcDNA3-Tie1-V5 construct; also called Tie1-transfected; transfected Tie1
Experimental: COS1 cells were transfected with pcDNA3-Tie1-V5 (1 μg DNA per 10 cm cell culture plate) using FUGENE 6 (Roche) according to manufacturer's instruction and incubated for 48 h before stimulation. For immunoprecipitation, Tie1 transfected cells and HMVEC cells were lysed in DOC-RIPA lysis buffer (50 mM Tris-HCl pH 8.0, 150 mM NaCl, 1% Triton-X-100, 0.1% SDS, 1% DOC, 10 mM EDTA) supplemented with aprotinin, leupeptin, PMSF and sodium vanadate. Immunoprecipitation was carried out from equal amount of cell lysates by incubating with polyclonal anti-human Tie1 antibodies (R&D), monoclonal anti-V5 antibodies (Invitrogen) or altogether 23 anti-Tie1 antibodies (1μg/ml) for 1 to 2 h followed by incubation with protein G-Sepharose (Amersham Pharmacia Biotech AB) for 1 h. The immunoprecipitates were washed twice with PBS-T and twice with PBS, followed by elution with the Laemmli buffer and separation in 8% SDS-PAGE. The blots were probed with the 23 anti-Tie1 antibodies (5 μg/ml) and subsequently anti-human Fc antibodies conjugated with HRP.
Next, to find out if the anti-Tie1 antibodies recognize Tie1 in living cells, those cells were studied by immunofluorescence staining.

IC50 of tube formation by HUVECs [1] | Kd [2] | koff [2] | kon [2] | Kd [3] | koff [3] | kon [3] | binding result [4] | binding result [5] | Binder
10 ng/ml and 66 pM | 5.83 nM | 3.61e-05 s⁻¹ | 6190 M⁻¹ s⁻¹ | 14.9 nM | 9.2e-05 s⁻¹ | 6170 M⁻¹ s⁻¹ |  |  | E3 IgG (parental anti-Tie1 antibody E3, human IgG1) (antibody, V domains shown, also called E3 IgG1; parental E3) VH: EVQLLESGGGLVQPGGSLRLSCAASGFTFSMYGMVWVRQAPGKGLEWVSVISPSGGNTGYADSVKGRFTISRDNSKNTLYLQVNSLRAEDTAVYYCARAPRGYSYGYYYWGQGTLVTVSS VL: DIQMTQSPLSLSASVGDRVTITCRASQGIGHYLAWYQQKPGKVPKLLIYTASTLQSGVPSRFSGSGSGTDFTLTINSLQPEDVATYYCQQFNSYPHTFGQGTRLDIK
10 ng/ml and 66 pM | 5.17 nM | 3.67e-05 s⁻¹ | 7090 M⁻¹ s⁻¹ | 15 nM | 8.99e-05 s⁻¹ | 6000 M⁻¹ s⁻¹ |  |  | germlined E3 IgG (light chain framework regions germlined to DPK4; heavy chain as parental) (antibody, V domains shown, also called germlined E3 IgG1; germlined anti Tie1 E3-IgG) VH: EVQLLESGGGLVQPGGSLRLSCAASGFTFSMYGMVWVRQAPGKGLEWVSVISPSGGNTGYADSVKGRFTISRDNSKNTLYLQVNSLRAEDTAVYYCARAPRGYSYGYYYWGQGTLVTVSS VL: DIQMTQSPSSLSASVGDRVTITCRASQGIGHYLAWYQQKPGKVPKLLIYTASTLQSGVPSRFSGSGSGTDFTLTISSLQPEDVATYYCQQFNSYPHTFGQGTRLEIK
 |  |  |  |  |  |  | binds | binds | P-B3 IgG (anti-Tie1 isolate p-B3, human IgG1) (antibody, V domains shown, the VL entry stops within FR4) VH: EVQLLESGGGLVQPGGSLRLSCAASGFTFSRYGMHWVRQAPGKGLEWVSVISPSGGMTYYADSVKGRFTISRDNTKNTLYLQMNSLRAEDTAVYYCARVGATGPFDIWGQGTMVTVSS VL: DIQMTQSPATLSLSPGERATLSCRASQSVSTYLAWYQQKPGQAPRLLIYDASNRATGIPGRFSGSGSGTDFTLTISSLEAEDFAVYYCQQRSSWPITFGQG
